The results in this text go back to patent US20120058118A1 (Boehringer Ingelheim, published 2012).

Read-outs that look alike come from different tables or passages of the source. Some results are limits rather than exact numbers.

The target of assay [1] is T1, human A-beta(1-40) peptide, monomeric (BAM) (human, biotin at the C-terminus in capture ELISA, SPR and TR-FRET; not biotinylated where coated directly (Example 7)).
T1 construct: synthetic peptide (Anaspec), TFA/HFIP treated to give monomer; also called monomeric A-beta
The experiment in a line: ABII002 TR-FRET competition assay. For orientation: TR-FRET usually uses a lanthanide donor and a delayed reading to cut background.

For assay [2], the target named is T1, human A-beta(1-40) peptide, monomeric …. The experiment in a line: ABII050 TR-FRET competition assay.
The target of the next assay is T2, A-beta(1-28) peptide (human).
T2 construct: Anaspec peptide, solution antigen in KinExA
The experiment in a line: KinExA, A-beta(1-28) in solution; PEGylated ABII322. For orientation: Kinetic exclusion samples the free partner from a solution-phase mixture.

Assay [3] deals with T3, pGlu-A-beta(1-28), C-terminally biotinylated (human, pyroglutamate formed from the glutamate at position 3 (N-terminus); biotin at the C-terminus).
T3 construct: printed as pGlu-A-beta(1-28), while the text says that the first two N-terminal residues are missing; range 3-28 is my reading; also called pyroglutamyl-Abeta
The experiment in a line: SPR on captured C-terminally biotinylated pGlu-A-beta(1-28), 1:1 model.
From the text: Association and dissociation curves can be fitted using a 1:1 interaction model and an accurate KD value can be determined.

Assay [4] addresses T4, His.Xa.Abeta1-28.GS.p38 fusion protein.
T4 construct: His-tag, factor Xa site, A-beta(1-28), GS linker, murine p38 alpha; the SEC experiment names it only A-beta(1-28)-p38 fusion protein; also called A-beta(1-28)-p38 fusion protein; A-beta-p38 fusion protein
T4 chain: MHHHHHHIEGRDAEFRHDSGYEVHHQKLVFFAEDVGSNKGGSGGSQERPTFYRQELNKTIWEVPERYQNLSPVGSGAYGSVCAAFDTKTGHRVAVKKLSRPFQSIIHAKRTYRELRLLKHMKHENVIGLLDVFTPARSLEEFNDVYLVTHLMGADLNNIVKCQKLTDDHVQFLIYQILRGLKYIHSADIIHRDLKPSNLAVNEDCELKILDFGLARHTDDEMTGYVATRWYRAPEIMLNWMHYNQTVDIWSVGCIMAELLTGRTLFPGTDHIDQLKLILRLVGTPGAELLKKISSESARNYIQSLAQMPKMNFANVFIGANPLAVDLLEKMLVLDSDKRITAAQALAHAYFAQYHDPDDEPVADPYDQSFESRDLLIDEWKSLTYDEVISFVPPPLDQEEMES
The experiment in a line: size exclusion chromatography, Experion quantification (0.87 µM and 0.86 µM).
Method: Determination of the binding mode using size exclusion chromatography: Size exclusion chromatography (SEC) separates molecules according to differences in size as they pass through a gel filtration medium packed in a column. The binding mode of biparatopic VHH constructs to their target can be identified by analysing the protein complex after incubating a 1:2 molar ratio of the respective VHH construct and the target protein. Therefore the mixture will be separated by SEC and the contents of the resulting peaks is analyzed by protein gel electrophoresis. […] The gel filtration produced two peaks which are further analyzed by SDS-PAGE using the automated electrophoresis station Experion (Bio-Rad, USA) and the appropriate chip (Pro260 Chip, Bio-Rad, USA).

Assay [5] addresses T1, human A-beta(1-40) peptide, monomeric …. The experiment in a line: ABII42D4 TR-FRET assay.
The target is the same in assay [6]. The experiment in a line: 42D4 TR-FRET assay (labelled ABII42D4).
For assay [7] the target is unchanged. The experiment in a line: 60A10 TR-FRET assay (labelled ABII60A10).
In assay [8] the target is T5, aggregated A-beta(1-40) peptide (BAA) (human).
T5 construct: also called A-beta peptide aggregates
The assay is described as follows: BAA ELISA. On the technique in general: An ELISA detects its analyte on a solid surface through an enzyme-linked reagent.

The target of assay [9] is T1, human A-beta(1-40) peptide, monomeric …. The assay is described as follows: BAM ELISA.
The target of assay [10] is T5, aggregated A-beta(1-40) peptide (BAA). The experiment in a line: BAA ELISA. The source holds these as a separate data set.
The target of assay [11] is T1, human A-beta(1-40) peptide, monomeric …. The experiment in a line: BAM ELISA. This is another data set of the same source.
The target is the same in assay [12]. The experiment in a line: TR-FRET competition.
The target is the same in assay [13]. The assay is described as follows: cell-based or functional assay.
Assay [14] shares this target. The experiment in a line: SPR on captured biotinylated A-beta(1-40).
The target is the same in assay [15]. The assay is described as follows: TR-FRET competition, labelled ABII60A10.
Assay [16] shares this target. The assay is described as follows: SPR, captured C-terminally biotinylated A-beta(1-40).
Assay [17] concerns the target T6, mouse A-beta(1-40) peptide (mouse).
T6 construct: Bachem peptide coated directly; also called rodent A-beta(1-40)
T6 peptide: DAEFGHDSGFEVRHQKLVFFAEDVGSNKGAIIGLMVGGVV
The experiment in a line: ELISA EC50.

In assay [18] the target is T7, human A-beta peptide (residues 1-24) (human).
T7 construct: used for co-crystallisation; also called A-beta(1-24)
The assay is described as follows: crystal structure.
Method: The complex is concentrated by diafiltration to a concentration of 4 mg/ml. Crystallization trials are set up as sitting drop vapour diffusion experiments by mixing 200 nl of protein with 200 nl of reservoir solution against a reservoir volume of 100 μl. […] Data are collected at the beamline 6SA of the swiss light source at the Paul-Scherrer Institute in Villigen, Switzerland.

For assay [19], the target named is T1, human A-beta(1-40) peptide, monomeric …. The experiment in a line: ELISA, format not stated.
For assay [20] the target is unchanged. The experiment in a line: TR-FRET competition, mean IC50.
The target is the same in assay [21]. The assay is described as follows: ELISA, peptide coated at 2 µg/ml, anti-myc detection.
For assay [22], the target named is T6, mouse A-beta(1-40) peptide. The description is as above.
For assay [23], the target named is T1, human A-beta(1-40) peptide, monomeric …. The experiment in a line: TR-FRET competition; labelled competitor not given.
A further assay concerns the target T8, soluble APP-alpha (UniProt P05067-4 18-612, limits assumed, biotinylated where used as labelled partner).
T8 construct: bought; also called sAPPalpha
The experiment in a line: TR-FRET: competition with labelled ABII320 for biotinylated sAPPalpha; non-labeled ABII035 as competitor; biotinylated sAPPalpha.

T8 sequence (P05067 other isoform, or with tags, fused parts or gaps limits assumed): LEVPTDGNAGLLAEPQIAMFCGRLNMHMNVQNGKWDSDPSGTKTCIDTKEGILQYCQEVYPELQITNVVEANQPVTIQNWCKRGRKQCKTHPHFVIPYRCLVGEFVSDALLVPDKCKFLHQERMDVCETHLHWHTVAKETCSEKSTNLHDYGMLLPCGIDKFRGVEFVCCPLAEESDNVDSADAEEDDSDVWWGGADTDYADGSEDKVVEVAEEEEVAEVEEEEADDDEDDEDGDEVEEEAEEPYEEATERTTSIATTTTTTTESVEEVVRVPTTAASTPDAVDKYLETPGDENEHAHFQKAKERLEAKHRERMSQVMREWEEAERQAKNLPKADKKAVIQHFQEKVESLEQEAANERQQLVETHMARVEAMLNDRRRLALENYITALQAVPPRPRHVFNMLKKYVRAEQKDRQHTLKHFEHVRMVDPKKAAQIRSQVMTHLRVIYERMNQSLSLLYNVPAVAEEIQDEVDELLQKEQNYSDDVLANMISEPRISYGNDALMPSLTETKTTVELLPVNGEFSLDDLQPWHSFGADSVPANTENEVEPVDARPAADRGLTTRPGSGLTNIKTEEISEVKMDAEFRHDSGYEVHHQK
Method for A-beta(1-28) peptide: The KinExA experiments are conducted with a KinExA 3000 and the KinExA Pro software (Sapidyne Instruments Inc., USA) at room temperature (ca. 21° C.). PBS with 0.02% NaN₃ is used as running buffer. For all experiments, antigen is serially diluted into PBS with 0.1% BSA and 0.02% NaN₃ having a constant VHH concentration. The mixtures of antigen and VHH are incubated for 24 h at room temperature prior to measurement. The flow rate of the samples and the labeling antibody for all experiments is 0.25 ml/min.
This antibody is used at a volume of 500 μl and a concentration of 0.5 μg/ml in PBS with 0.1% BSA and 0.02% NaN₃.
The equilibrium titration data are fit to a 1:1 binding model using KinExA Pro software Version 1.0.3 (Sapidyne Instruments Inc., USA). […] The sample volume is 5 ml each. […] The sample volume is 11 ml each.
Method for soluble APP-alpha: Two independent experiments are performed applying a dilution series of the competitor compounds.

B1: ABII322-PEG40 (designed binder)
chain: VQLLESGGGLVQPGGSLRLSCAASGRTFNNYNMGWFRQAPGKGREFVAAVSRSGVSTYYADSVKGRFTISRDNSKNTVYLQMNSLRPEDTAVYYCAAAYRGTAINVRRSYSSWGQGTLVTVSSGGGSGGGGSGGGGCGGGGSGGGGSGGGEVQLLESGGGLVQPGGSLRLSCVHSGPTFRTDTMGWFRQAPGKGREFVAAVTWNSGRINYADSVKGRFTISRDNSKNTAYLQMNSLRPEDTAVYYCAAHRFVVGGNRVEDWRYWGQGTLVTVSS
modifications: PEG40 on the Cys at position 14 of the 27GS linker
notes: 059-27GSC-035; also called PEGylated ABII322 VHH construct; biparatopic PEGylated VHH ABII322
A word on the IC50: it is the concentration that gives 50% inhibition. Low values mean inhibition by little substance, high ones a need for much substance. As a reminder, the Kd is the equilibrium constant for the complex coming apart. High values mean weaker binding, low ones tighter binding. In the case of B1, the IC50 was 0.14 nM in assay [1] and 0.17 nM in assay [2]. In addition, the figures for the Kd (with A-beta(1-28) peptide; in assay [3]) were 0.0006 nM and 1 nM, respectively.

B2: 60A10-27GS-42D4-Alb (designed binder)
chain: EVQLVESGGGLVQAGGSLRLSCAASGRTFNNYNMGWFRQAPGKEREFVAAVSRSGVSTYYADSVKGRFTISRDNAKNAVYLQMNSLKPEDTAIYYCGAAYRGTAINVRRSYDSWGQGTQVTVSSGGGSGGGGSGGGGSGGGGSGGGGSGGGEVQLVESGGGLVLAGGSLRLSCVHSGPTFSTDTMGWFRQAPGKEREFVAAVTWNSGRTNYADSVKGRFTVSRDNTRNAAYLQMSGLKDEDTAVYYCTAHRLVVGGTSVGDWRYWGQGTQVTVSS
notes: calculated molecular weight 95 kDa; also called biparatopic VHH fused to human serum albumin; not shown: human serum albumin, fused C-terminally
As to B2, the “ratio of A-beta(1-28)-p38 to 60A10-27GS-42D4-Alb in the complex” value in assay [4] was ~1.

B3: ABII42D4-9GS-ABII42D4 (designed binder)
chain: EVQLVESGGGLVLAGGSLRLSCVHSGPTFSTDTMGWFRQAPGKEREFVAAVTWNSGRTNYADSVKGRFTVSRDNTRNAAYLQMSGLKDEDTAVYYCTAHRLVVGGTSVGDWRYWGQGTQVTVSSGGGGSGGGGEVQLVESGGGLVLAGGSLRLSCVHSGPTFSTDTMGWFRQAPGKEREFVAAVTWNSGRTNYADSVKGRFTVSRDNTRNAAYLQMSGLKDEDTAVYYCTAHRLVVGGTSVGDWRYWGQGTQVTVSS
notes: VHH dimer with two identical domains; also called bivalent ABII42D4
As for B3, the “fold improved IC50 against monovalent ABII42D4” value in [5] worked out at 3.2 fold. The IC50 in [6] was 16 nM; in assay [7], > 1000 nM.

B4: Fab fragment of monoclonal antibody m266 (Fab, V domains shown)
VH: EVKLVESGGGLVQPGGSLKLSCAVSGFTFSRYSMSWVRQTPEKRLELVAQINSVGNSTYYPDTVKGRFTISRDNAEYTLSLQMSGLRSDDTATYYCASGDYWGQGTTLTVSS
VL: DVVMTQTPLSLPVSLGDQASISCRSSQSLIYSDGNAYLHWFLQKPGQSPKLLIYKVSNRFSGVPDRFSGSGSGTDFTLKISRVETEDLGVYFCSQSTHVPWTFGGGTKLEIK
notes: also called Fab266; m266Fab
As a reminder, the EC50 is the concentration needed to bring the measured effect to its halfway point. A higher EC50 goes with a less potent agent. Broadly, the koff is the first-order rate constant of dissociation. Low readings indicate a long-lived complex, high ones a short-lived complex. For the molecule B4, the EC50 in [8], in assay [9], in [10] and in assay [11] was 1.8 nM throughout. The IC50 was 0.52 nM in [12]; 0.52 nM in assay [2]; > 1000 nM in assay [6]; 0.52 nM in assay [15]; 2.3 nM in [7]. Also, the “Aggregation inhibition (% inhibition at 26 µM)” value in assay [13] stood at 82%. The koff in assay [14] was found to be 4e-05 s⁻¹. This molecule had a Kd in assay [16] of 0.3 nM.

B5: ABII035 (VHH)
VHH: EVQLLESGGGLVQPGGSLRLSCVHSGPTFRTDTMGWFRQAPGKGREFVAAVTWNSGRINYADSVKGRFTISRDNSKNTAYLQMNSLRPEDTAVYYCAAHRFVVGGNRVEDWRYWGQGTLVTVSS
notes: humanized variant of ABII002
B5: the “fold difference mouse against human A-beta” value in assay [17] turned out to be 2.2 fold. Also, the binding result in [18] was “binds”. Also, the “fold difference of EC50 against the 2D2 and 2G6 VHHs” value in [19] is > 50 fold. The “Aggregation inhibition (% inhibition at 26 µM)” value in [13] worked out at 54%. Moreover, the half-maximal inhibitory concentration (IC50) turned out to be 4 nM in [20], 3.5 nM in assay [1], 4 nM in [23] and 25.6 nM in the assay with soluble APP-alpha. Besides, the EC50 in [21] stood at 2.5 nM; in assay [22], 5.7 nM.
